Columns and labels:
[1] = biological target: T1, cJun bZIP (human, UniProt P05412 252-308, limits assumed); experiment: cell-based or functional assay
T1 chain: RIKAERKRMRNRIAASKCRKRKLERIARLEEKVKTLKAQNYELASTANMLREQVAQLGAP

[2] = biological target: T2, cJun/TRE DNA interaction (Homo sapiens, UniProt P05412, S292Y); experiment: CD cJun/TRE DNA antagonism (shift of TRE DNA peak at ~281 nm, Hill fit); assay type: biochemical; details: HingeW concentrations of 50 and 100 μM
T2 construct: The same 60 amino acid c-Jun bZIP construct was used for all experiments; His-SUMO (N, cleaved yes); made in house; host or cells: E. coli

[3] = biological target: T3, cFos bZIP domain (Homo sapiens, UniProt P01100, S177Y); experiment: CD spectra/thermal denaturation with cFos bZIP (off-target); assay type: binding; details: CD spectra and thermal denaturation
T3 construct: His-SUMO (N, cleaved yes); made in house; host or cells: E. coli
T3 sequence (P01100 with tags, fused parts or gaps S177Y): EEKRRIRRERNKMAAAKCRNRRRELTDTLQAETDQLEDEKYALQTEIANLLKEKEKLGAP
Procedure: (FIG. 11D). Although this represented a negligible 1.3° C. increase in heterodimer Tm, there was crucially a much larger ΔTm for HingeW/cJun relative to the component peptide denaturation profiles than for A-FosW/cJun. The low thermal stability of the HingeW homodimer results in no observable lower baseline prior to the transition such that the Tm for this component, and thus the average, cannot be determined. However, this ΔTm can be estimated to be ˜40° C., compared to 27.5° C. for A-FosW/cJun. The TBS screen has therefore led to an optimised reduction in homodimersation more so than increased heterodimerisation with the target. This ensures that more antagonist is available as free monomer in solution and therefore in a target-dimerisation competent state. Another difference between the two denaturation profiles is the presence of a double transition for the A-FosW/cJun heterodimer, with a smaller initial transition occurring at ˜30° C.

[4] = biological target: T1, cJun bZIP
[5] = biological target: T1, cJun bZIP
[6] = biological target: T1, cJun bZIP; experiment: ITC, antagonist injected into cJun, one site model
[7] = biological target: T1, cJun bZIP; experiment: CD thermal denaturation, peptide 5 µM and c-Jun 5 µM
[8] = biological target: T1, cJun bZIP
[9] = biological target: cJun bZIP (Homo sapiens, UniProt P05412, S292Y); experiment: CD spectra and thermal denaturation of peptide/cJun heterodimers
[10] = biological target: T4, cFos bZIP (human, UniProt P01100 137-193); experiment: CD spectra 190-260 nm, equimolar mixture compared with the average of the 10 µM component spectra
T4 construct: Purified from a His-SUMO fusion with the tag cleaved off; also called cFos bZIP domain
T4 chain: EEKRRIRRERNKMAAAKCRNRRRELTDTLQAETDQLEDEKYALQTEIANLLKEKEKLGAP

[11] = CD spectra and thermal denaturation of peptide-only samples (helicity, homodimer Tm); details: peptide alone

B1: HingeW (peptide)
peptide: MASLEQRAEELARENEELEKEAEELVVEEDVLEEEIEQLEERNYALRKEIEDLQKQLEKLGAPHHHHHH
notes: Recombinant, capped (MAS at the N-terminus, GAP at the C-terminus) and C-terminally 6xHis-tagged, 69 amino acids; also called peptide 1
IC50, EMSA of free TRE DNA band [1]: 9.6 µM
TBS assay colony numbers relative to A-FosW [1]: 10%
TBS assay colony numbers relative to TRE-mDHFR alone [1]: 66%
antagonism of the cJun/TRE interaction [2]: complete antagonism
interaction with cFos bZIP [3]: no interaction
increase in heterodimer Tm against A-FosW/cJun [4]: 1.3 ° C.
Tm (° C.) (CD) [5]: 71.2 ° C.
Kd [6]: 0.0144 µM
TΔS (ITC) [6]: -39.2 kJ/mol
ΔG (ITC) [6]: -46.2 kJ/mol
ΔH (ITC) [6]: -85.4 kJ/mol
Tm (° C.) of peptide-c-Jun heterodimer [7]: 71.2 ° C.
ΔTm from component average (CD) [8]: ~40 ° C.
increase in heterodimer Tm relative to A-FosW/cJun [9]: 1.3 °C
Fraction helicity at 20° C. (CD) ([9]; heterodimer with c-Jun, equimolar, 10 μM total): 34.7%
Tm (° C.) (CD) ([9]; heterodimer with cJun bZIP, Example 1, listed as HingeW): 71.2 °C
ΔTm from component average (CD) ([9]; heterodimer with cJun vs average of component profiles, listed as HingeW): ~40 °C
binding result [10]: no binding (tested: 5 µM of each peptide)
Fraction helicity at 20° C. (CD) [11]: 27.2%
helicity in isolation, less helical relative to A-FosW [11]: 12.9%
